From paper PMC4786802, “Structure-Based Virtual Ligand Screening on the XRCC4/DNA Ligase IV Interface” (Scientific Reports, 2016)

Biological target: T1, XRCC4 (residues 1-336) (human, UniProt Q13426 1-336)
T1 construct: XRCC4, human, residues 1-336; The copies value of 2 rests on the introduction's words (one XRCC4 homodimer and one Lig4 monomer in the active complex), not on a measurement made here; also called X4
Assay: differential scanning fluorimetry; Lig4 C-ter and XRCC4 equimolar at 5 uM in 20 mM HEPES pH 7.5, 100 mM KCl, 2 mM EDTA, 1 mM DTT, 66 mM NDSB-195, 10% glycerol, 10X SYPRO Orange; heated from 20 to 89 °C
Conditions: both partners purified

T1 sequence (Q13426 whole entry, the tested form may be a part): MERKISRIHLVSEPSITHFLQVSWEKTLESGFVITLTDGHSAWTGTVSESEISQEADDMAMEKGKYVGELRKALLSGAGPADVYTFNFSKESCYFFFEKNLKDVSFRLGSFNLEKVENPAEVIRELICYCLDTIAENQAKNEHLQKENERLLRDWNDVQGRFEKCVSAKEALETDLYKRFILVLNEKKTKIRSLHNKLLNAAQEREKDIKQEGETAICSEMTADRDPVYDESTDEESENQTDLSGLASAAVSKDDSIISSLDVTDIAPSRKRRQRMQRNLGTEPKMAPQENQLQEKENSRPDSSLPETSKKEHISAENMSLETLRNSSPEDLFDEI

B1: WT Lig4 C-ter domain (654-911) (domain or fragment, human, UniProt P49917 654-911, looked up)
chain: KISNIFEDVEFCVMSGTDSQPKPDLENRIAEFGGYIVQNPGPDTYCVIAGSENIRVKNIILSNKHDVVKPAWLLECFKTKSFVPWQPRFMIHMCPSTKEHFAREYDCYGDSYFIDTDLNQLKEVFSGIKNSNEQTPEEMASLIADLEYRYSWDCSPLSMFRRHTVYLDSYAVINDLSTKNEGTRLAIKALELRFHGAKVVSCLAEGVSHVIIGEDHSRVADFKAFRRTFKRKFKILKESWVTDSIDKCELQEENQYLI
notes: DNA ligase IV (Lig4), human, C-terminal fragment with the two BRCT domains and the clamp domain, residues 654-911; also called Lig4 C-ter fragment; C-ter Lig4 protein; source: Escherichia coli BL21 (DE3), purified (HisTrap HP, HiTrap Q HP)
B1: binds.
